What all share (assay): SEC; Superdex 200 HR 16/60 GL, 4°C, 0.5 mL/min, 20 mM HEPES pH 7.6; apparent masses from Kav against marker proteins; apparent oligomeric state = extrapolated mass / calculated monomer mass (with His-tag)
Data set [1] concerns the target IM30 α1-3 (helices 1-3) (Synechocystis sp. PCC 6803).
In data set [2] the target is IM30 α1-4 (helices 1-4) (Synechocystis sp. PCC 6803).
Data set [3] deals with the molecule itself.

Broadly, the stoichiometry N is a count of units in the complex or per binding partner. In the case of “IM30 α1-3 (helices 1-3) (domain or fragment)”, the stoichiometry N in data set [1] is 1.76.

For the molecule “IM30 α1-4 (helices 1-4) (domain or fragment)”, the stoichiometry N in data set [2] is 2.2.

B1: inner membrane-associated protein of 30 kDa (IM30) wt, Synechocystis sp. PCC 6803 (natural protein, UniProt Q55707 1-267, looked up)
chain: MGLFDRLGRVVRANLNDLVSKAEDPEKVLEQAVIDMQEDLVQLRQAVARTIAEEKRTEQRLNQDTQEAKKWEDRAKLALTNGEENLAREALARKKSLTDTAAAYQTQLAQQRTMSENLRRNLAALEAKISEAKTKKNMLQARAKAAKANAELQQTLGGLGTSSATSAFERMENKVLDMEATSQAAGELAGFGIENQFAQLEASSGVEDELAALKASMAGGALPGTSAATPQLEAAPVDSSVPANNASQDDAVIDQELDDLRRRLNNL
notes: IM30 (Vipp1) of the cyanobacterium Synechocystis sp; PCC 6803, wild type, helices 1-7; the last residue is 267 (α4-7 = amino acids 147-267); Forms rings of variable size; also called Vipp1; full-length protein; source: heterologously expressed and purified (as in Fuhrmann et al., 2009a)
For the molecule B1, the binding result in data set [3] is reported as “binds”.

The values above are taken from article PMC6374351, “The Fusion Activity of IM30 Rings Involves Controlled Unmasking of the Fusogenic Core” (Frontiers in Plant Science, 2019).
